Experimental data from patent EP4388012A1 (dated 2024).
Where two headings read alike, the source gives them in different places.

Experiments:
[1] = target: T1, soluble HLA-E-VL9 complex (HLA-E*01:03 heavy chain refolded with b2M and synthetic VL9 peptide) (human)
[2] = target: T1, soluble HLA-E-VL9 complex (HLA-E*01:03 …); assay: SPR, antibody immobilized on CM5 chip, soluble HLA-E-VL9 flowed, 1:1 model

Row | Binder | Kd [1] [µM] | Kd [2] [µM]
1 | 3H4, murine HLA-E-VL9-specific IgM monoclonal antibody (antibody, V domains shown, also called mAb 3H4; 3H4 IgM) VH: EVQLQESGPELVKPGASVKIPCKASGYTFTDYNMDWVKQSHGKSLEWIGDINPNNGGTIYNQKFKGKATLTVDKSSSTAYMELRSLTSEDTAVYYCARPDYYGSSYGWYFDVWGTGTTVTVSS VL: DIVITQSPSSMYASLGERVTITCKASQDINSYLSWFQQKPGKSPKTLIYRANRLVDGVPSRFSGSGSGQDYSLTISSLEYEDMGIYYCLQYDEFPLTFGAGTKLELK | 8.1 | 
2 | 3H4 as a recombinant human IgG1 (unoptimized, wild-type 3H4 on a human IgG1 backbone, 3H4 Gwt) (antibody, V domains shown, also called 3H4 IgG; wild-type 3H4 IgG) VH: EVQLQESGPELVKPGASVKIPCKASGYTFTDYNMDWVKQSHGKSLEWIGDINPNNGGTIYNQKFKGKATLTVDKSSSTAYMELRSLTSEDTAVYYCARPDYYGSSYGWYFDVWGTGTTVTVSS VL: DIVITQSPSSMYASLGERVTITCKASQDINSYLSWFQQKPGKSPKTLIYRANRLVDGVPSRFSGSGSGQDYSLTISSLEYEDMGIYYCLQYDEFPLTFGAGTKLELK |  | 49.8
